Reference: patent publication US20240343803A1 (SHANDONG SIMCERE BIOPHARMACEUTICAL, published 2024)
Read-outs that look alike come from different tables or passages of the source.

How the values were obtained:
[1] = target: T1, human PVRIG (AcroBiosystems, Cat NO. PVG-H52H4) (human, UniProt Q6DKI7 41-171, limits assumed); assay: ELISA, coated human PVRIG
T1 construct: Bought protein with His tag; also called human PVRIG-his; human PVRIG protein
T1 sequence (looked up): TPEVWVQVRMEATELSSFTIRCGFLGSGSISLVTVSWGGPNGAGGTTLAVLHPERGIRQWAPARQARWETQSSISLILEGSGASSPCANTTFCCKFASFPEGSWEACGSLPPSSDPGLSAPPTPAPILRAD
Protocol: (§1) The ELISA plate was pre-coated with 50 μL/well of 1.0 μg/mL human PVRIG (AcroBiosystems, Cat NO. PVG-H52H4) or 50 μL/well of 0.5 μg/mL cynomolgus monkey PVRIG (Novoprotein, Cat NO. C09B). The tested antibodies were serially diluted (initial concentration 13 nM, 3-fold serial dilution, 12 concentration points), added into the plate (50 μL/well) and incubated at 37° C. for 2.0 hours. After washing the plate, the Goat anti-human IgG Fc-HRP (Merck, Cat NO. AP113P) working solution (dilution ratio 1:5000, 50 μL/well) were added into wells and incubated at 37° C. for 1.0 hour. A HRP substrate, TMB (KPL, Cat NO. 5120-0077) was added into wells after washing the plate again and incubated at 37° C. for 10 minutes for color development. After adding a termination solution to terminate the reaction, the absorbance value was read by a microplate reader (PE, Ensight-HH3400). An antibody binding curve was drawn with molar concentration of antibodies as the abscissa and the corresponding OD value as the ordinate. The EC50 value was calculated by using a Four Parameter Logistic Fit (GraphPadPrism9). […] The positive control antibodies are COM701-hIgG1, PVRIG-A50-H1b and PVRIG-A105-H1; and the negative control antibodies are anti-Fluorescein-hIgG1 (in house). The binding results of the 4 humanized bispecific antibodies to human PVRIG protein are shown in FIG. 41 and Tables 40 and 41, and the binding results to cynomolgus monkey PVRIG are shown in FIG. 42 and Tables 40 and 41. […] The binding of LC-BsAb-002 and LC-BsAb-006 to human PVRIG protein is slightly weaker than that of the corresponding monoclonal antibody (PVRIG-A50-H1b) and the positive control (COM701-hIgG1).

[2] = target: T2, cynomolgus monkey PVRIG (Novoprotein, Cat NO. C09B) (cynomolgus monkey, UniProt A0A2K5WVV8 41-171); assay: ELISA, coated cynomolgus PVRIG
T2 construct: Bought protein; construct not described; also called cynomolgus monkey PVRIG protein
T2 sequence: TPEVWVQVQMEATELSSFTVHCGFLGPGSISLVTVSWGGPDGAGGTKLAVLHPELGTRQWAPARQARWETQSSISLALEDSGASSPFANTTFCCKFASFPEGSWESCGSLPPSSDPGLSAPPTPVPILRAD
Protocol: as §1

[3] = target: T3, human PVRIG-mFc protein (Acro, PVG-H5253) (human, UniProt Q6DKI7 41-171, limits assumed); assay: FACS blocking of PVRIG-mFc binding to CHO-K1-CD112 cells; competitor CD112
T3 construct: extracellular domain; Bought protein; also called PVRIG-ECD-mFc; not shown: mouse Fc tag of the bought protein
T3 sequence (looked up): T1 sequence (looked up)
How it was run: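 Zombie violet-stained CHO-K1-CD112 cells were added for 30 min at 4° C, then PE goat anti-mouse IgG Fc (1:250) was applied and mean fluorescence intensity read on a BD Canto II. Curves were fitted with four-parameter logistic models in GraphPad Prism 9. IC50 and curve AUC were reported as percentages of the reference antibody values.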

[4] = target: T3, human PVRIG-mFc protein (Acro, …); assay: HTRF competition, PVRIG-mFc with Bio-CD112-His as competitor
Protocol: PVRIG-mFc (ACRO Biosystems, Cat NO. PVG-H5253) and Bio-CD112-His (Sino Biological, Cat NO. 10005-H08H) were diluted to 0.5 μg/mL, respectively. Streptavidin-Tb cryptate (Cisbio) and PAb anti mouse IgG-XL665 (Cisbio) were diluted to 20 μg/mL and 0.8 μg/mL, respectively. The tested antibodies were diluted from the initial concentration of 120 nM, by 3-fold serial dilution for 12 concentration points. The diluted PVRIG-mFc, Bio-CD112-His, Streptavidin-Tb Crytate and PAb anti mouse IgG-XL665 were mixed at 1:1:1:1, and added into a 384-well plate (PE, Cat NO. 6007299), 10 μL/well. 10 μL/well of serially diluted antibodies was added into wells, centrifuged at 1500 rpm for 30s, and incubated at 37° C. for 1 hour. The plate was read on the microplate reader (PE, Envision2105) with wavelengths of 665 nm and 620 nm. […] A Four Parameter Logistic Fit was performed with the molar concentration of the antibodies as the abscissa and Ratio as the ordinate to calculate IC50. The smaller the IC50, the better the effect of the antibody block the binding of PVRIG to PVRL2. The positive controls in this experiment are COM701-hIgG1, PVRIG-A50-H1b and PVRIG-A105-H1; and the negative control antibody is anti-Fluorescein-hIgG1 (in house). The effect of 4 humanized bispecific antibodies blocking the binding of PVRIG to PVRL2 is shown in FIG. 51 and Tables 44 and 45. […] The blocking effect of LC-BsAb-002 is better than its corresponding monoclonal antibody (PVRIG-A50-H1b) and the positive control (COM701-hIgG1). The blocking effect of LC-BsAb-006 is better than its corresponding monoclonal antibody (PVRIG-A50-H1b), but slightly weaker than the positive control (COM701-hIgG1). The blocking effects of LC-BsAb-009 and LC-BsAb-010 are not as good as their corresponding monoclonal antibodies (PVRIG-A105-H1) and the positive control (COM701-hIgG1).

human TIGIT ECD-mFc [5] = target: T4, human TIGIT ECD-mFc (human); assay: ELISA, human TIGIT ECD-mFc captured by anti-mouse IgG
T4 construct: also called human TIGIT protein; fusion protein of extracellular domain of human TIGIT and mouse IgG2a Fc fragment
T4 chain: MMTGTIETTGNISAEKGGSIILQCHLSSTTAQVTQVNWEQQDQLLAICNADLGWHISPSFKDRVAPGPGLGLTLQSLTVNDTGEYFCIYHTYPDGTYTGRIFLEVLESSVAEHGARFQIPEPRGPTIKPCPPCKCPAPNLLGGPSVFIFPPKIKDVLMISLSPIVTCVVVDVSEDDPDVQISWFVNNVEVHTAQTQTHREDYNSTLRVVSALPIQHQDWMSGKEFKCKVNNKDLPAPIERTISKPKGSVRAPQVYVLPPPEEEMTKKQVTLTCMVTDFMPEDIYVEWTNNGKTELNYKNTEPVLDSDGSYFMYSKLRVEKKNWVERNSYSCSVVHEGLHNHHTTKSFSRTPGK
Protocol: (§2) After washing with blocking buffer, the plate was added with 50 μL/well of 30 ng/ml human TIGIT ECD-mFc (in house) or cynomolgus monkey TIGIT ECD-mFc (in house) and incubated at 37° C. for 2.0 hours. After washing the plate, the serial diluted antibodies (initial concentration 13 nM, 3-fold serial dilution, 12 concentration points) were added into the plate (50 μL/well) and incubated at 37° C. for 2.0 hours. After washing the plate, the goat anti-human IgG Fc-HRP (Merck, Cat NO. AP113P)) working solution (dilution ratio 1:5000, 50 μL/well) were added into wells and incubated at 37° C. for 1.0 hour. A HRP substrate, TMB (KPL, Cat NO. 5120-0077) was added into wells after washing the plate again for color development. After adding a termination solution to terminate the reaction, the absorbance value was read by a microplate reader (PE, Ensight-HH3400). An antibody binding curve was drawn with molar concentration of antibodies as the abscissa and the corresponding OD value as the ordinate. The EC50 value was calculated by using a Four Parameter Logistic Fit (GraphPad Prism9). […] The positive control antibodies are RG6058-hIgG1, TIGIT-002-H4L3 and TIGIT-005-H2Lld; and the negative control antibodies are anti-Fluorescein-hIgG1 (in house). The binding results of the 4 humanized bispecific antibodies to human TIGIT protein are shown in FIG. 43 and Tables 42 and 43, and the binding results to cynomolgus monkey TIGIT are shown in FIG. 44 and Tables 42 and 43.

human TIGIT ECD-mFc [6] = target: T4, human TIGIT ECD-mFc; assay: as above
Protocol: as §2

[7] = target: T5, cynomolgus monkey TIGIT ECD-mFc (cynomolgus monkey); assay: ELISA, cynomolgus TIGIT ECD-mFc captured by anti-mouse IgG
T5 construct: also called cynomolgus monkey TIGIT protein
Protocol: as §2

[8] = target: T5, cynomolgus monkey TIGIT ECD-mFc; assay: as above; remark: listed apart in the source
Protocol: as §2

B1: PVRIG-A50-H1b (Fc fusion)
chain: EVQLVESGGGLVQPGGSLRLSCAASGFTFSYYDMSWVRQAPGKGLEWVSTINSDGGRTSYVDSVKGRFTISRDNSKNTLYLQMNSLRAEDTAVYYCVEGDPHNFGLESLSLRDFGSWGQGTMVTVSS
notes: VHH-human IgG1 Fc format is stated for the parental VHH antibodies; not restated for the humanized variants; also called A50.VH1b; not shown: human IgG1 hinge-CH2-CH3 (Fc)
% relative activity COM701-hIgG1/tested antibody [1]: 65.4% | % relative activity PVRIG-A50-H1b/tested antibody [1]: 100% | EC50 [1]: 0.379 nM | % relative activity COM701-hIgG1/tested antibody [2]: 95.5% | % relative activity PVRIG-A50-H1b/tested antibody [2]: 100% | EC50 [2]: 0.038 nM | % AUC to COM701-hIgG4 [3]: 104% | % AUC to SO35-hIgG1 [3]: 61.6% | % AUC to parental Ab [3]: 85.5% | % IC50 to COM701-hIgG4 [3]: 95.2% | % IC50 to SO35-hIgG1 [3]: 73.7% | % IC50 to parental Ab [3]: 81.4% | % relative activity COM701-hIgG1/tested antibody [4]: 66.7% | % relative activity PVRIG-A50-H1b/tested antibody [4]: 100% | IC50 [4]: 0.206 nM

B2: RG6058-hIgG1 (antibody, V domains shown)
VH: EVQLQQSGPGLVKPSQTLSLTCAISGDSVSSNSAAWNWIRQSPSRGLEWLGKTYYRFKWYSDYAVSVKGRITINPDTSKNQFSLQLNSVTPEDTAVFYCTRESTTYDLLAGPFDYWGQGTLVTVSS
VL: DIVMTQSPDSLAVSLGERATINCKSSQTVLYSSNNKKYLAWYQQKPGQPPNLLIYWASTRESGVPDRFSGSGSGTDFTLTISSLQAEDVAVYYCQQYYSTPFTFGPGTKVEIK
notes: Anti-TIGIT positive control; also called Roche RG6058
% relative activity RG6058-hIgG1/tested antibody (human TIGIT ECD-mFc [5]): 100% | % relative activity TIGIT-002-H4L3/tested antibody (human TIGIT ECD-mFc [5]): 74.3% | EC50 (human TIGIT ECD-mFc [5]): 0.0504 nM | % relative activity RG6058-hIgG1/tested antibody (human TIGIT ECD-mFc [6]): 100% | % relative activity TIGIT-005-H2L1d/tested antibody (human TIGIT ECD-mFc [6]): 85.2% | EC50 (human TIGIT ECD-mFc [6]): 0.0504 nM | % relative activity RG6058-hIgG1/tested antibody [7]: 100% | % relative activity TIGIT-002-H4L3/tested antibody [7]: 90% | EC50 [7]: 0.0461 nM | % relative activity RG6058-hIgG1/tested antibody [8]: 100% | % relative activity TIGIT-005-H2L1d/tested antibody [8]: 96.8% | EC50 [8]: 0.0461 nM
